What was measured:
[1] = molecular target: the molecule itself; assay: crystal structure; PA3825^EAL metal-free apo, tetragonal crystal P4_(3)2_(1)2, 1 molecule/AU, 1.60 Å
[2] = molecular target: the molecule itself; assay: crystal structure; MucR^EAL with c-di-GMP/Mg^2+, P2_(1), 2 molecules/AU, 2.27 Å; Morpheus Buffer System 1 pH 6.5, 21 °C

B1: EAL domain of PA3825 (residues 255–517) (domain or fragment, Pseudomonas aeruginosa PAO1, UniProt Q9HXH7 255-517, looked up)
chain: SRRVASPSSELRRALEANEFIPYYQPLSPGQGGRWIGVEVLMRWRHPREGLIRPDLFIPFAERSGLIVPMTRALMRQVAEDLGGHAGKLEPGFHIGFNISATHCHELALVDDCRELLAAFPPGHITLVLELTERELIESSEVTDRLFDELHALGVKIAIDDFGTGHSSLAYLRKFQVDCLKIDQSFVARIGIDTLSGHILDSIVELSAKLDLDIVAEGVETPEQRDYLAARGVDYLQGYLIGRPMPLESLLSSLTVQEGQGAS
notes: PA3825, Pseudomonas aeruginosa PAO1, EAL phosphodiesterase domain, residues 255-517; The residue numbers of the results (Glu39, Asp160, Asp161, Glu217, loop 160-170) cannot count on the full-length protein; they seem to count on the crystallised domain or the PDB entries; Cloned into the popinF vector; Seen as a 'closed dimer' in the crystal; also called PA3825^EAL; PA3825-EAL; source: E. coli …
[1]
  binding result: binds

B2: EAL domain of MucR (residues 425–685) (domain or fragment, Pseudomonas aeruginosa PAO1, UniProt Q9I310 425-685, looked up)
chain: SSMNANAQEQLQLLHDLRQALERRQLVLHYQPKVLAPNGPMIGVEALLRWEHPQHGLITPGQFLPLAEKTGLIVQIGEWVLDEACRQMRLWLDGGHADWNIAVNLSALQFAHAGLVDSVRNALLRHSLEPSHLILEVTESTAMRDADASLVILEQLSAMGVGISIDDFGTGYSSLLYLKRLPASELKIDRGFINELAHDSDDAAIVSAIVALGRTLNLKIVAEGVETEAQQEFLTRLGCNSLQGFLLGRPMPAEQLLASVA
notes: MucR (PA1727), Pseudomonas aeruginosa PAO1, EAL phosphodiesterase domain, residues 425-685; Cloned into pET-28a through NdeI and HindIII, which would give an N-terminal His6 tag with a thrombin site (surmised); no cleavage of the tag is described; Seen as the 'classic dimer' in the crystal, 2 molecules in the asymmetric unit; also called MucR^EAL; MucR-EAL; source: E. coli BL21 DE3, purified …
[2]
  binding result: binds

From publication PMC5301497, “Dimerisation induced formation of the active site and the identification of three metal sites in EAL-phosphodiesterases” (Scientific Reports, 2017)
